Source: paper PMC4239318, “Quantitative investigation of the affinity of human respiratory syncytial virus phosphoprotein C-terminus binding to nucleocapsid protein” (Virology Journal, 2014)
Values joined by “and” are separate entries in the source; they are usually repeats but may differ in a detail not shown here. Equal entries are not always repeated. Square brackets hold non-standard residues; d marks the D form. Ends that are not written are not given here. Peptide text beside a SMILES is read from it. * marks the point of attachment. BODIPY(FL) = CC1=CC(C)=[N+]2C1=Cc1ccc(CCC(=O)*)n1[B-]2(F)F; pS = N[C@@H](COP(=O)(O)O)C(=O)O

How the values were obtained:
RSV-N(13-391) [1] = target: T1, RSV-N(13-391) (Human respiratory syncytial virus A, UniProt P03418); experiment: biochemical; details: from ΔG = RT ln Kd and IC50 = 2 × Kd; 10 mM Tris-HCl pH 7.5 at 21°C; approximate
Procedure: (§1) Samples of 10 μl containing peptides and proteins as indicated were prepared in buffer composed of 10 mM Tris-HCl (pH 7.5) +0.01% Brij-35 detergent (Pierce Surfact-Amps-35, Thermo Fisher Scientific, Rockford, IL) in low-volume 384-well black polystyrene assay plates (Thermo Fisher Scientific, Hudson, NH). After a 5 minute incubation, fluorescence anisotropy was measured with a Pherastar plate reader (BMG Labtech, Cary, NC) equipped with a filter module having a 485 nm excitation filter and 520 nm emission filters with polarizers. The focal height was 10.8 mm. Each measurement used 50 flashes. The parallel and perpendicular detector gains were set to 392 and 366 in order to produce an anisotropy of about 0.03 in the absence of binding.
The averages of triplicate anisotropy measurements made at each competitor concentration were used to calculate % inhibition using the equation %inhibition=1001–r–rmin/rmax–rmin where r is the anisotropy at the competitor concentration, rmin is the anisotropy with no RSV-N(13-391), and rmax is the anisotropy with no competititor.
(§2) All fluorescence anisotropy measurements were performed at ambient temperature, approximately 21°C.
For the BP5 competition assay, the P protein storage buffer was replaced by repeated concentration using centrifugal ultrafiltration with a Millipore Ultrafree 0.5 unit with Biomax-10 membrane (EMD Millipore, Billerica, MA) and dilution with 10 mM Tris-HCl (pH 7.5). The protein concentration was determined by the method of Bradford using bovine serum albumin as the standard. Serial dilutions of P were prepared in 10 mM Tris-HCl (pH 7.5) +0.01% Brij-35.

RSV-N(13-391) [2] = target: T1, RSV-N(13-391)
Procedure: as §1
The averages of triplicate fluorescence anisotropy measurements made at each RSV-N(13-391) concentration were fit to the equation y=yo+aN/Kd+N where y is the anisotropy, yo is the anisotropy of peptide alone, [N] is the RSV-N(13-391) concentration, and yo + a is the anisotropy of fully bound peptide.
as §2

15N-labeled N(31-252) = target: T2, 15N-labeled N(31-252) (Human respiratory syncytial virus A, UniProt P03418); experiment: 2-D NMR [15N,1H] TROSY titration, chemical shift perturbation; assay type: binding, human respiratory syncytial virus (strain A2); details: 0.15 mM 15N N(31-252); 25 mM HEPES pH 7.5, 100 mM NaCl, 1 mM DTT, 1 mM EDTA; 298 K; global best fit ± standard error of fit; read-out: Kd measured by NMR
T2 construct: His6 (N); TEV protease cleavage recognition site (N); made in house; host or cells: E. coli BL21(DE3)pLysS, M9 minimal medium with [15N]; NH4Cl
Procedure: NMR spectra were acquired at 298 K with a 600 MHz NMR instrument (Bruker, Billerica MA) equipped with an AVANCE III console and a triple-resonance cryogenic probe. Samples were at pH 7.5 in a 25 mM HEPES buffer containing 100 mM NaCl, 1 mM dithiothreitol, and 1 mM EDTA. The concentration of ^15N labeled RSV N(31-252) was 0.15 mM. Two-dimensional [^15N, ^1H] transverse relaxation optimized spectroscopy (TROSY) experiments were recorded with increasing ligand concentration. Evolution times were approximately 53 ms in the ^1H dimension and 29 ms in the ^15N dimension. The total acquisition time was 28 min per experiment.
To estimate the dissociation constant (Kd) from NMR experiments, ^15N-RSV N(31-252) was titrated with a range of ligand concentrations. The weighted average of chemical shift changes (Δδ(N, H)obs) is calculated using the following equation: ΔδN,Hobs=ΔδHN^2+ΔδΝ/5^2 where ΔδHN and ΔδN are the chemical shift changes of amide protons and nitrogens, respectively. Then Δδ(N, H)obs data were fitted by non-linear regression globally against the total concentration of the subtrate (LT) with the equation: ΔδN,Hobs=ΔδN,HmaxKd+LT+ET‐Kd+LT+ET^2−4LTET/2ET where Δδ(N, H)max is the maximum chemical shift difference, ET is the total concentration of N(31-352) in the solution, and LT is the total concentration of ligand.

[3] = target: T3, RSV N(13-391), N-terminally truncated nucleocapsid protein (human respiratory syncytial virus, …, UniProt P03418 13-391); experiment: fluorescence polarisation; fluorescence anisotropy, direct binding; 100 nM BP1 or 25 nM BP5, N(13-391) varied; 10 mM Tris-HCl pH 7.5, 0.01% Brij-35; about 21 °C; details: both partners purified
T3 construct: source: E. coli BL21(DE3)pLysS, purified (Ni2+ chelating, Q-Sepharose, Superdex 200)
T3 sequence: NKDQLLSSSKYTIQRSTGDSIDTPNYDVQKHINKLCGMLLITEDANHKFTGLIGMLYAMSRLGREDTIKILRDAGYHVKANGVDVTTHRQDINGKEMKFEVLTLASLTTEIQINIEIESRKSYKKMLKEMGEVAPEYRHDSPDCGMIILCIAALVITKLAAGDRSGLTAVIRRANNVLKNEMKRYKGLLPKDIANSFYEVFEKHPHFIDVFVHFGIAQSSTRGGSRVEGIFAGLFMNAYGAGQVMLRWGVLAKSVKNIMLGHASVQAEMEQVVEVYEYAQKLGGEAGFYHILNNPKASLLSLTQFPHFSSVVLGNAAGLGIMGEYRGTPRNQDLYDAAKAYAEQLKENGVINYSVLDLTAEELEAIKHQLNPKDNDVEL

[4] = target: T3, RSV N(13-391), N-terminally truncated …; experiment: fluorescence polarisation; details: both partners purified
[5] = target: T3, RSV N(13-391), N-terminally truncated …; experiment: SPR; Biacore T200; His10-P immobilised on NTA chip (nickel capture, amine coupling); 100 nM N(13-391) mixed with peptide series; 20 mM HEPES-NaOH pH 7.5, 100 mM NaCl, 1 mM EDTA, 1 mM TCEP, 0.005% Tween 20, 1% DMSO; details: both partners purified
[6] = target: T3, RSV N(13-391), N-terminally truncated …; experiment: fluorescence polarisation; fluorescence anisotropy, competition with 25 nM BP5 and 75 nM N(13-391), competitor varied; 10 mM Tris-HCl pH 7.5, 0.01% Brij-35; about 21 °C; details: both partners purified
[7] = target: T3, RSV N(13-391), N-terminally truncated …; experiment: as above; details: both partners purified; remark: listed apart in the source
[8] = target: T4, RSV N(31-252), nucleocapsid construct consisting of residues 31-252 (human respiratory syncytial virus, …, UniProt P03418 31-252); experiment: NMR titration; 2-D [15N,1H] TROSY of 0.15 mM 15N-labeled N(31-252) with increasing ligand; 25 mM HEPES pH 7.5, 100 mM NaCl, 1 mM DTT, 1 mM EDTA; 298 K; details: both partners purified
T4 construct: source: E. coli BL21(DE3)pLysS, purified (Ni2+ chelating, Superdex 200)
T4 sequence: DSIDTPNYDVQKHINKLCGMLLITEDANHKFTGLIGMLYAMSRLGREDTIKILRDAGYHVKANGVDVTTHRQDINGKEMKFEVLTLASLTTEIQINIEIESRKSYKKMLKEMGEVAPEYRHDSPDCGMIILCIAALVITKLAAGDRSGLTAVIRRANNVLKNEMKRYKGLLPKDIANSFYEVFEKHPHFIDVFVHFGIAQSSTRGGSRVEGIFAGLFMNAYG

CC(C)C[C@H](NC(=O)[C@H](COP(=O)(O)O)NC(=O)[C@H](CC(C)C)NC(=O)[C@H](CC(=O)O)NC(=O)[C@H](CC(N)=O)NC(=O)[C@H](CC(=O)O)NC(=O)[C@H](COP(=O)(O)O)NC(=O)[C@@H](N)CC(=O)O)C(=O)N[C@@H](CCC(=O)O)C(=O)N[C@@H](CC(=O)O)C(=O)N[C@@H](Cc1ccccc1)C(=O)O [D(pS)DNDL(pS)LEDF] (H-D[pS]DNDL[pS]LEDF-OH)
ΔG of binding to RNA-free N(13-391) (RSV-N(13-391) [1]): -8.7 kcal/mol

CC(C)C[C@H](NC(=O)[C@H](COP(=O)(O)O)NC(=O)[C@H](CC(C)C)NC(=O)[C@H](CC(=O)O)NC(=O)[C@H](CC(N)=O)NC(=O)[C@H](CC(=O)O)NC(=O)[C@H](COP(=O)(O)O)NC(=O)[C@@H](N)CC(=O)O)C(=O)N[C@@H](CCC(=O)O)C(=O)N[C@@H](CC(=O)O)C(=O)N[C@@H](C)C(=O)O [D(pS)DNDL(pS)LEDA]
ΔG of binding to RNA-free N(13-391) (RSV-N(13-391) [1]): -6.0 kcal/mol

Cc1cc(C)n2c1C=C1C=CC(CCC(=O)N[C@@H](CC(=O)O)C(=O)N[C@@H](COP(=O)(O)O)C(=O)N[C@@H](CC(=O)O)C(=O)N[C@@H](CC(N)=O)C(=O)N[C@@H](CC(=O)O)C(=O)N[C@@H](CC(C)C)C(=O)N[C@@H](COP(=O)(O)O)C(=O)N[C@@H](CC(C)C)C(=O)N[C@@H](CCC(=O)O)C(=O)N[C@@H](CC(=O)O)C(=O)N[C@@H](Cc3ccccc3)C(=O)O)=[N+]1[B-]2(F)F [BP5] ({BODIPY(FL)}-D[pS]DNDL[pS]LEDF-OH)
Effect of KCl concentration (ionic strength) on affinity for N(13-391) (RSV-N(13-391) [2]; Kds measured with N(13-391) 1.95 to 2000 nM in triplicate, Figure 1B): diminished as the ionic strength increased
affinity relative to unphosphorylated peptide BP1 (RSV-N(13-391) [2]; ratio of Kds for N(13-391)): about 10 times

DSDNDLSLEDF
ΔG of binding to RNA-free N(13-391) (RSV-N(13-391) [1]): -6.9 kcal/mol

N[C@@H](CC(=O)O)C(=O)N[C@@H](Cc1ccccc1)C(=O)O [DF, Asp-Phe, reference compound] (H-Asp-Phe-OH)
Kd (15N-labeled N(31-252)): 2600 µM

B1: BP1, BODIPY-FL labeled peptide 1 (DSDNDLSLEDF) (peptide)
peptide: {BODIPY(FL)}-DSDNDLSLEDF
notes: C-terminal 11 residues (231-241) of RSV phosphoprotein P; C-terminus uncapped; source: synthetic peptide (Biopeptide Co.), labelled with BODIPY FL SSE, purified on Sephadex LH-20
Kd [3]: 0.76 µM

B2: DSDNDLSLEDA (unphosphorylated P C-terminal peptide, C-terminal Phe changed to Ala) (peptide)
peptide: DSDNDLSLEDA
notes: also called Ala-modified peptide; source: synthetic peptide (Biopeptide Co.)
IC50 [4]: > 200 µM

B3: D(pS)DNDL(pS)LEDA (doubly phosphorylated P C-terminal peptide, C-terminal Phe changed to Ala) (peptide)
peptide: D[pS]DNDL[pS]LEDA
notes: source: synthetic peptide (Biopeptide Co.)
IC50 [4]: 69 µM

B4: DSDNDL(pS)LEDF (P C-terminal peptide phosphorylated on the C-terminal serine) (peptide)
peptide: DSDNDL[pS]LEDF
notes: residues 231-241 of RSV phosphoprotein P; N- and C-termini uncapped; source: synthetic peptide (Biopeptide Co.)
IC50 [5]: 31 µM
IC50 [6]: 1.51 µM

B5: peptide 5, D(pS)DNDL(pS)LEDF (doubly phosphorylated P C-terminal peptide) (peptide)
peptide: D[pS]DNDL[pS]LEDF
notes: as for B4
IC50 [5]: 13.6 µM
IC50 [6]: 0.61 µM and 0.74 µM
Kd [7]: ~0.34 µM
Kd [8]: 74 µM

B6: BP5, BODIPY-FL labeled peptide 5 (D(pS)DNDL(pS)LEDF) (peptide)
peptide: {BODIPY(FL)}-D[pS]DNDL[pS]LEDF
notes: as for B1
Kd [3]: 0.078 µM

B7: peptide 1, DSDNDLSLEDF (unphosphorylated P C-terminal peptide) (peptide)
peptide: DSDNDLSLEDF
notes: as for B4
IC50 [5]: 230 µM
IC50 [6]: 15.3 µM
Kd [7]: ~7.6 µM

B8: D(pS)DNDLSLEDF (P C-terminal peptide phosphorylated on the N-terminal serine) (peptide)
peptide: D[pS]DNDLSLEDF
notes: as for B4
IC50 [5]: 44 µM
IC50 [6]: 2.17 µM
